# Results as given in article PMC5988292, “Crystal structures of the PH domains from Lbc family of RhoGEFs bound to activated RhoA GTPase” (Data in Brief, 2018).
# Where “and” joins values, the source holds several entries; their conditions need not be identical. Equal entries are not always repeated.
# Molecular target: T1, YFP-RhoA·GTPγS (UniProt P61586 1-193)
# T1 construct: RhoA; Loaded with GTPγS
# Test: FRET or BRET; competition: non-fluorescent PH domain titrated into 1 μM YFP-RhoA·GTPγS + 1 μM CFP-PRG-PH; 20 mM NaHEPES pH 7.5, 1 mM EDTA, 1 mM DTT, 100 mM NaCl, 5 mM MgCl2; 25 °C; ratio 525/475 nm
# Details: both partners purified
row,IC50,Binder
1,> 60 µM and ~60 µM,"PH domain from mouse p114RhoGEF (residues 302-444) (domain or fragment, UniProt Q6P9R4-1 302-444, looked up, p114RhoGEF, mouse, PH domain, residues 302-444; The final model holds residues 299-444, three more at the N-terminus than the stated construct; also called p114-PH; p114RhoGEF-PH) YEKDQRLKEIAAKTDQKSSGKLKNGLTFRKEDMLQQRQLHLEGALCWKSTSGRLKDVLAVLLTDVLLLLQEKDQKYVFASVDSKPPVISLQKLIVREVANEEKAMFLISASMQGPEMYEMYTSSKEDRNIWMAHIRRAVESCP"
2,~20 µM,"PH domain from human AKAP-LbcRhoGEF (residues 2195-2333) (domain or fragment, UniProt Q12802 2195-2333, looked up, AKAP-LbcRhoGEF, human, PH domain, residues 2195-2333; also called AKAP-Lbc-PH; AKAP-LbcRhoGEF-PH) YEKKVRLNEIYTKTDSKSIMRMKSGQMFAKEDLKRKKLVRDGSVFLKNAAGRLKEVQAVLLTDILVFLQEKDQKYIFASLDQKSTVISLKKLIVREVAHEEKGLFLISMGMTDPEMVEVHASSKEERNSWIQIIQDTIN"
3,3 µM,"PRG-PH (non-fluorescent PH domain of PDZRhoGEF) (domain or fragment, UniProt O15085 924-1085, looked up, PH domain of PDZRhoGEF (PRG); also called PDZRhoGEF-PH) VKQTENRHRLEGYQKRLDATALERASNPLAAEFKSLDLTTRKMIHEGPLTWRISKDKTLDLHVLLLEDLLVLLQKQDEKLLLKCHSKTAVGSSDSKQTFSPVLKLNAVLIRSVATDKRAFFIICTSKLGPPQIYELVALTSSDKNTWMELLEEAVRNATRHP"
4,> 150 µM,"p115-PH (PH domain of p115RhoGEF) (domain or fragment, UniProt Q92888 647-760, looked up, PH domain of p115 (Lbc-family RhoGEF)) KLVHEGPLTWRVTKDKAVEVHVLLLDDLLLLLQRQDERLLLKSHSRTLTPTPDGKTMLRPVLRLTSAMTREVATDHKAFYVLFTWDQEAQIYELVAQTVSERKNWCALITETAG"
